B1: C10orf62 (parent)
chain: MLWVQRKRRRKETSECPSDKDKSP
B2: PPFIA4 (parent)
chain: VMTLPSDLRKHRRKLLSPVSREEN

Variants of: B1
Experiment: protein stability index of a GFP-peptide fusion (GPS, HEK-293T) (PSI 1-6); higher = more stable
Conditions: c terminus: a fixed tail appended
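Note: lentivirally expressed fusions sorted by FACS into six bins by GFP to DsRed ratio, PSI derived from sequencing read proportions per bin multiplied by bin number.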

Protein stability index, by site and new letter:
K7: L 1.73 | F 2.73
E12: L 3.02 | D 2.39 | S 3.45 | F 2.5 | I 2.39 | Q 3.37
D21: R 1.92 | E 3.44 | K 4.07 | F 2.4
C16: I 2.95 | Q 3.75 | H 3.11 | G 2.43 | N 3.16
K20: N 4.29 | M 3.38
S14: Y 2.44 | R 2.55 | A 3.82 | N 3.14 | E 3.2
T13: D 2.3
P24: S 3.11
K11: L 3.55 | G 2.9 | R 3.39
E15: A 3.71 | H 2.92 | N 3.52 | Y 2.76 | V 3.29 | M 2.24 | C 3
K22: L 3.2 | N 3.47 | D 2.48 | E 2.83
M1: G 4 | Y 3.4
D19: E 2.46 | C 2.76 | P 2.61 | A 2.77 | I 2.84 | W 1.65
V4: I 2.87 | A 4.6 | K 3.56 | Y 2.71 | N 3.87 | P 3.11
R6: N 3.87 | S 3.42 | W 3.21 | K 3.13
S23: P 2.88 | Q 3.42 | A 3.2 | M 3.39 | H 2.77
R8: Q 4.1 | C 3.34 | N 3.78 | M 3.74 | S 3.91 | F 3.05 | D 3.52 | Y 3.19 | I 3.36 | H 3.89
R9: D 3.62 | E 3.71 | L 3.08 | F 3.64
R10: L 2.78 | C 2.51 | W 2.89 | N 3.78 | D 4.11 | P 4.27 | K 3.41
L2: D 4.88 | T 3.31 | I 3.21
Q5: F 2.67 | Y 2.8 | I 2.21 | C 2.61
P17: H 2.81 | Y 2.27 | R 2.52 | T 3.08
S18: A 3.23 | N 2.83 | T 2.75 | H 2.85 | D 3.07 | I 2.41 | K 2.77
W3: I 3.25 | H 4.31 | D 4.99 | A 4.3 | S 4.87 | L 3.73

Variants of: B2
Experiment: as above
Conditions: c terminus: a fixed tail appended

Protein stability index of substitutions, site by site:
V19: H 4.11 | I 3.8 | K 3.67 | T 4.18 | P 4.53 | A 4.06 | G 4.31 | Y 2.94 | N 3.91
R13: L 4.05 | S 4.36 | D 4.09 | W 2.92 | T 3.98 | I 3.47 | V 3.78 | H 4.05 | F 2.89 | P 4.33
L4: M 3.69 | S 3.94 | K 4.44 | F 3.4 | R 3.25 | E 4.37 | W 4.09 | T 4.28 | D 4.14 | P 4.32 | Q 4.02
D7: V 2.84 | A 2.24 | L 2.33 | W 2.92 | Q 3.3 | K 3.19 | C 2.86 | R 3.31 | P 3.44 | M 2.94
P18: T 4.31 | E 4.62 | N 3.72 | K 4.16 | Q 2.92 | Y 3.42 | A 4.42 | V 4.09 | G 4.12 | L 3.44 | W 2.47 | I 3.33 | S 4.07 | R 3.08
K10: G 3.87 | W 3.35 | V 2.96 | N 3.77 | S 3.88 | E 3.48 | H 3.58 | M 3.46 | I 3.25 | Y 2.76 | L 3.43
L16: S 4.43 | F 3.29 | T 4.31 | P 4.12 | Y 3.85 | I 3.41 | M 4.07 | E 4.29 | R 3.99 | N 3.87 | K 4.03 | C 4.37 | W 3.09
E23: L 3.4 | H 3.41 | P 3.5 | W 2.44 | I 3.15 | S 3.93 | Q 2.96 | G 2.94 | V 3.1
E22: L 2.26 | A 3.12 | M 3.25 | I 3.02 | W 2.23 | H 3.52 | S 3.68
V1: T 4.25 | L 3.27 | W 2.66 | P 4.27 | A 3.93 | Y 3.21 | R 4.59 | Q 4.35 | F 2.83
N24: T 3.73 | W 2.99 | H 3.88 | R 3.73 | V 3.27 | M 3.07 | G 3.23
L8: Q 4.05 | A 3.43 | C 4.04 | F 3.59 | V 4.11 | E 4.35
R21: W 3.32 | K 4.44 | H 4.17 | S 4.29 | P 3.91 | G 4 | E 4.47 | D 4.16 | L 3.84
R9: F 3.31 | A 4.01 | P 4.44 | Y 3.41 | S 4.14 | M 3.53 | G 4.46 | T 4
S20: M 3.82 | C 2.69 | E 4.26 | F 2.54 | G 4.22 | I 3.84 | A 3.98 | D 4.01
K14: I 3.1 | D 4.28 | N 3.9 | G 4.33 | W 2.43 | E 4.07 | T 4.01 | R 3.32
S17: H 3.93 | G 3.9 | P 4.17 | C 3.65 | R 3.77 | A 4.24 | N 3.88 | K 3.66 | Y 4.07 | L 3.73 | W 2.9
M2: Q 3.06 | R 4.04 | G 4.17 | E 4.54 | P 3.93 | F 3.19
R12: W 2.73 | N 4.14 | I 3.51 | S 4.12 | L 2.95 | V 3.41 | G 3.86 | K 3.81 | A 3.66 | P 4.34
T3: S 3.71 | A 3.92 | R 3.07 | V 2.95 | H 3.52 | D 4.12 | K 2.66 | M 2.31 | W 2.26 | Y 2.5
P5: H 2.67 | S 3.08 | K 3.4 | G 3.01 | R 4 | Y 2.7 | E 4.18
S6: D 4.02 | G 3.65 | C 3.6 | I 3.04 | F 3.57 | H 3.52 | M 3.4 | R 3.41 | Q 3.63 | V 2.4
H11: T 3.79 | Y 3.35 | N 4.02 | S 3.75 | L 3.14 | W 3.24 | E 4.37 | Q 2.93 | C 3.69 | I 3.12 | P 4.4
L15: D 4.63 | S 4.94 | C 3.55 | F 4.27 | Y 4.06 | H 4.02 | V 3.81 | P 4.11 | G 4.39 | N 4.38 | K 3.94 | I 3.9

From the supplement of paper PMC10567573
